# Measurements taken from paper doi:10.1101/2021.12.25.474155.
# Like-named read-outs stand apart in the source and are kept apart here.
# B1: siDGCR8-1 antisense (ssRNA)
# RNA: AUCACACUCUUGUCCGAUGUU
# modifications: 5'-phosphate
# B2: S2hp (structured_RNA)
# RNA: GGCUGUGUGGCUGUCACUCGGCUGCAUGCUUAGUGCACUCACGCAGUAUAAUUAAUAACUAAUUACUGUCGUUGACAGGACACGAGUAACUCGUCUAUCUUCUGCAGGCUGCUUACGGUUUCGUCCGUGUUGCAGCCGAUCAUCAGCACAUCUAGGUUUCGUCCGGGUGUGACCGAAAGGUAAGAUGGAGAGCCUUGUCCCUGGUUUCAACGA
# B3: SL4 (structured_RNA)
# RNA: GGCUGUGUGGCUGUCACUCGGCUGCAUGCUUAGUGCACUCACGCAG
# B4: SL4 hairpin (structured_RNA)
# RNA: GGCUGUGUGGCUGUCACUCGGCUGCAUGCUUAGUGCACUCACGCAG
# B5: S1hp (structured_RNA)
# RNA: GGUUUAUACCUUCCCAGGUAACAAACCAACCAACUUUCGAUCUCUUGUAGAUC
# B6: S2 (ssRNA)
# RNA: UAUAAUUAAUAACUAAUUACUG
# B7: F257 (structured_RNA)
# RNA: GGUCGUUGACAGGACACGAGUAACUCGUCUAUCUUCUGCAGGCUGCUUACGGUUUCGUCCGUGUUGCAGCCGAUCAUCAGCACAUCUAGGUUUCGUCCGGGUGUGACCGAAAGGUAAGAUGGAGAGCCUUGUCCCUGGUUUCAACGAGAAAACACACGUCCAACUCAGUUUGCCUGUUUUACAGGUUCGCGACGUGCUCGUACGUGGCUUUGGAGACUCCGUGGAGGAGGUCUUAUCAGAGGCACGUCAACAUCUUAAA
# B8: F294 (structured_RNA)
# RNA: GGAUUAAAGGUUUAUACCUUCCCAGGUAACAAACCAACCAACUUUCGAUCUCUUGUAGAUCUGUUCUCUAAACGAACUUUAAAAUCUGUGUGGCUGUCACUCGGCUGCAUGCUUAGUGCACUCACGCAGUAUAAUUAAUAACUAAUUACUGUCGUUGACAGGACACGAGUAACUCGUCUAUCUUCUGCAGGCUGCUUACGGUUUCGUCCGUGUUGCAGCCGAUCAUCAGCACAUCUAGGUUUCGUCCGGGUGUGACCGAAAGGUAAGAUGGAGAGCCUUGUCCCUGGUUUCAACGA
# B9: siDGCR8-1 duplex (dsRNA)
# RNA 1: CAUCGGACAAGAGUGUGAUUU
# RNA 2: AUCACACUCUUGUCCGAUGUU
# modifications: 5'-phosphate on both strands
# B10: S1.5hp (structured_RNA)
# RNA: GGAUCUCUUGUAGAUCUGUUCUCUAAACGAACUUUAAAAUCUGUGUGGCUGUCACUCGGCUGCAUGCUUAGUGCACUCACGCAG
# B11: F127 (structured_RNA)
# RNA: GGAUUAAAGGUUUAUACCUUCCCAGGUAACAAACCAACCAACUUUCGAUCUCUUGUAGAUCUGUUCUCUAAACGAACUUUAAAAUCUGUGUGGCUGUCACUCGGCUGCAUGCUUAGUGCACUCACGCAG
# B12: S8hp (structured_RNA)
# RNA: GGAAGGAGCUGGUGGCCAUAGUUACGGCGCCGAUCUAAAGUCAUUUGACUUAGGCGACGAGCUUGGCACUGAUCCUUAUGAAGAUUUUCAAGAAAACUGGAACACUAAACAUAGCAGUGGUGUUACCCGUGAACUCAUGCGUGAGCUUAACGGAGGGGCAUACACUCGCUAUGU
# B13: SL5 (structured_RNA)
# RNA: GGUCGUUGACAGGACACGAGUAACUCGUCUAUCUUCUGCAGGCUGCUUACGGUUUCGUCCGUGUUGCAGCCGAUCAUCAGCACAUCUAGGUUUCGUCCGGGUGUGACCGAAAGGUAAGAUGGAGAGCCUUGUCCCUGGUUUCAACGA
# B14: Tet3-9 (structured_RNA)
# RNA: GGACCGUCAAAUUGCGGGAAAGGGGUCAACAGCCGUUCAGUACCAAGUCUCAGGGGAAACUUUGAGAUGGCCUUGCAAAGGGUAUGGUAAUAAGCUGACGGACAUGGUCCUAACCACGCAGCCAAGUCCUAAGUCAACAGGAGACUGUUGAUAUGGAUGCAGUUCACAGACUAAAUGUCGGUCGGGGAAGAUGUAUUCUUCUCAUAAGAUAUAGUCGGACCUCUCCCGAAAGGGAGUUGGAGUACUCGAAAUUCGUUUGGAGGGCUGCAGGGCCCUCUAGA
# What was measured:
# NCAP [1] = biological target: T1, NCAP (SARS-CoV-2, UniProt P0DTC9); test: competition
# N-RBD [2] = biological target: T2, N-RBD (SARS-CoV-2, UniProt P0DTC9); test: EMSA
# NCAP [3] = biological target: T1, NCAP; test: EMSA
# NCAP [4] = biological target: T1, NCAP; test: EMSA; remark: listed apart in the source
# LCD [5] = biological target: T3, LCD (SARS-CoV-2, UniProt P0DTC9); test: EMSA
# DD-C [6] = biological target: T4, DD-C (SARS-CoV-2, UniProt P0DTC9); test: EMSA
# NCAP [7] = biological target: T1, NCAP; test: EMSA; remark: listed apart in the source
# NCAP [8] = biological target: T1, NCAP; test: EMSA; remark: listed apart in the source
# NCAP [9] = biological target: T1, NCAP; test: competition; remark: listed apart in the source
# N-RBD [10] = biological target: T2, N-RBD; test: EMSA; remark: listed apart in the source
# LCD [11] = biological target: T3, LCD; test: EMSA; remark: listed apart in the source
# DD-C [12] = biological target: T4, DD-C; test: EMSA; remark: listed apart in the source
binder,measurement,setting,value
B1,binding result,NCAP [1],no binding
B2,Kd,N-RBD [2],~0.354 µM
same,Kd,NCAP [3],0.173 ± 0.014 µM
same,Kd,NCAP [4],0.312 ± 0.039 µM
same,Kd,LCD [5],~1.41 µM
same,Kd,DD-C [6],~0.707 µM
B3,Kd,NCAP [7],0.356 ± 0.043 µM
same,Kd,NCAP [8],4.8 ± 0.2 µM
B4,Kd,NCAP [3],0.569 ± 0.067 µM
same,Kd,NCAP [4],8.6 ± 1 µM
B5,binding result,NCAP [9],binds
B6,binding result,N-RBD [10],no binding
same,binding result,LCD [11],no binding
same,binding result,DD-C [12],no binding
same,Kd,NCAP [3],0.216 ± 0.023 µM
B7,Kd,NCAP [3],0.023 ± 0.005 µM
B8,Kd,NCAP [3],0.026 ± 0.01 µM
B9,binding result,NCAP [1],binds
B10,binding result,NCAP [9],binds
B11,Kd,NCAP [3],0.183 ± 0.056 µM
B12,binding result,NCAP [1],binds
B13,Kd,NCAP [3],0.166 ± 0.036 µM
same,Kd,NCAP [4],1.25 ± 0.13 µM
B14,binding result,NCAP [1],binds
